{"source": "paper PMC1540706", "key": {"[1]": {"molecular_target": "human β2-appendage (700–937) used for ITC (human) (UniProt P63010)", "sequence (P63010 700-937)": "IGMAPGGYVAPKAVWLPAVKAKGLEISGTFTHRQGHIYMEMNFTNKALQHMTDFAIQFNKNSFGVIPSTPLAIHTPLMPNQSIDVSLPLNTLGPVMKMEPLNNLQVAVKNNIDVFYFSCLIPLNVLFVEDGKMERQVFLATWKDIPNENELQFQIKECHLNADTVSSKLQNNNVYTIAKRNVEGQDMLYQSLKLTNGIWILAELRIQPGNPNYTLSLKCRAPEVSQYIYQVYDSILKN", "assay": "ITC; VP-ITC; 100 mM HEPES, 50 mM NaCl, 2 mM DTT pH 7.4 at 10 °C; peptides or proteins injected from the syringe into the cell"}, "epsinR peptide": {"molecular_target": "epsinR peptide", "assay": "ITC", "details": "stoichiometry (1.3)"}}}
{"substance": "epsinR peptide", "values": [{"measurement": "Kd", "setting": "[1]", "value": 80, "unit": "µM"}]}
{"substance": "human β2-appendage (700–937) used for ITC (from UniProt P63010) Y888V", "values": [{"measurement": "Kd", "setting": "epsinR peptide", "value": 77, "unit": "µM"}]}
